Positions count from the first letter of the chain named.

The EC50 is the concentration at which the effect is half-maximal. High values mean weaker potency, low ones greater potency. By Kd is commonly meant the equilibrium constant for the complex coming apart. A low value points to higher affinity. Broadly, the IC50 is the concentration that inhibits the measured activity by half.

The target of test [1] is T1, biotinylated cPD-L1_hFc (Sino Biological Cat. 70110-D02H-B) (canine; human, biotinylated (sites not given)).
T1 construct: also called cPD-L1-biotin; cPD-L1_hFc-Biotin; not shown: human Fc tag (hFc)
T1 chain: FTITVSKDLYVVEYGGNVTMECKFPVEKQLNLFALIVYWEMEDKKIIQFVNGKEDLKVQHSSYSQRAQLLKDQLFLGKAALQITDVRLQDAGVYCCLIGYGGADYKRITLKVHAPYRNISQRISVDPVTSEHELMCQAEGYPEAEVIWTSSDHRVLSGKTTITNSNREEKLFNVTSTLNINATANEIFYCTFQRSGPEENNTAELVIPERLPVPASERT
As to the kind of experiment: Fab-capture ELISA: Fab on anti-canine Fab capture antibody, cPD-L1_hFc-Biotin titrated. Here is the method: The screening was performed as described in Example 4. Fab binders of CAN1005016 and CAN1005019 were loaded onto plate-bound anti-canine Fab capture antibody, followed by addition of titration series of cPD-L1_hFc-Biotin. Detection was performed with Streptavidin-HRP. The parental clone CAN1005001 was included as a control. Curve fits and EC50 values were analyzed with GraphPad Prism.
In general terms: An ELISA detects its analyte on a solid surface through an enzyme-linked reagent.

The target in test [2] is T2, PD-L1-his (canine).
T2 construct: also called monovalent PD-L1 antigen; not shown: his tag
T2 chain: T1 chain
The test is described as follows: grating-coupled interferometry (waveRAPID): antibody captured on PAG chip, PD-L1-his as analyte, 1:1 fit, 25 C. Here is the method:
(§1) To further characterize the kinetic properties of our candidates CAN1005016 and CAN1005019, the KD of our candidates was quantified using waveRAPID in a GCI system according to the procedure described below. The binding kinetics study was performed on the Creoptix® WAVEdelta system using a PAG sensor chip (Creoptix, a Malvern Panalytical brand). All experiments were performed with HBS-EP (Cytiva) as running buffer, at a temperature of 25° C. and sampling rate of 10 Hz. Data acquisition and evaluation were performed using WAVEcontrol software version 4.5.13.
(§2) Prior to ligand capturing, the sensor chip was conditioned by a 180 sec injection of 100 mM sodium borate, 1 M NaCl, pH 9 (Xantec). Antibody was diluted to 1 μg/ml in HBS-EP and captured to a density of =300 pg/mm2 on flow channel 2. Flow channel 1 was left blank to serve as a reference surface. For collection of kinetic data, PD-L1-his was diluted to 200 nM in HBS-EP and injected over ligand and reference surfaces in repeated analyte pulses of increasing duration (waveRAPID) at flowrate of 60 μl/min. PD-L1-his was injected for a total duration of 180 sec, followed by measuring complex-dissociation in running buffer for 30 min. Blank injections were performed to enable double referencing of the data and a 0.5% DMSO pulse injection (running buffer with 0.5% DMSO) was used as an analyte concentration modulation calibration curve. Data were corrected (X and Y offset, DMSO calibration, double referencing) and fitted with a simple 1:1 interaction model (global fit) to obtain kinetic parameters.

Test [3] has as its target T1, biotinylated cPD-L1_hFc (Sino …). The test is described as follows: Fab-capture ELISA: Fab from lysate on anti-canine Fab antibody, cPD-L1-biotin titrated. Here is the method: To identify derivatives with a higher affinity, an alternative ELISA setup was used for screening to better normalize BEL expression levels and differentiate Fabs more efficiently with respect to their affinity. In contrast to the previous screening ELISA setup, a Maxisorp plate was coated over night with an anti-canine Fab antibody in a low density of 1 μg/ml. Coated plates were washed 3× with PBS-T, followed by loading with diluted BELs. After the BEL incubation and washing with PBS-T, dilution series of cPD-L1-biotin was added to the plate. Detection was performed with Streptavidin-HRP, followed by more stringent 5× washing with PBS-T and Quanta Blue substrate addition. Measurement was performed as described before (Example 1).

In test [4] the target is T3, cPD-L1_hFc (canine PD-L1 Fc-fusion protein; Sino Biological Cat. 70110-D02H) (canine; human).
T3 construct: Bought product; also called canine PD-L1_hFc; cPD-L1 fusion protein; not shown: human Fc tag (hFc)
T3 chain: T1 chain
The test is described as follows: ELISA ligand-binding inhibition, cPD-L1_hFc on the plate, competitor PD-1-Biotin (206 nM). Here is the method:
cPD-L1 fusion proteins were directly immobilized on the plate overnight at 4° C., commonly in a concentration of 57 nM. For […] ELISA, black 384 well Maxisorp plates were used. The coated plates were washed 3× with PBS-T, followed by blocking with Chemiblocker (Merck-Millipore; 2170) for 1 h at RT. The blocked plates were washed 3× with PBS-T, followed by addition of titration-series of blocking antibodies and incubation for 1 h at RT. Subsequently plates were washed again 3× with PBS-T and PD-1-Biotin (1× biotinylated via Avi-tag; Sinobiological Cat.: 70109-D27H-B) was added and incubated for 1 h at RT, usually in a concentration of 4 μg/ml (206 nM). This concentration of canine PD-1-Biotin was previously identified as optimal by titrating the binding of PD-1-Biotin towards immobilized canine PD-L1_hFc. After incubation with the ligand PD-1, the plate was washed 3× with PBS-T and suitable detection reagent for the biotinylated PD-1, usually Streptavidin-HRP, was added and incubated for 1 h at RT. Subsequently, the plate was washed 5×, followed by addition of Quanta Blue and measurement as described above for the screening ELISA.

The target of test [5] is T3, cPD-L1_hFc (canine PD-L1 Fc-fusion …). As to the kind of experiment: binding ELISA, cPD-L1 fusion protein on the plate.
Test [6] has the same target. The test is described as follows: binding ELISA, IgG titrated on plate-bound cPD-L1_hFc. Here is the method:
cPD-L1 fusion proteins were directly immobilized on the plate, commonly in a concentration of 57 nM. For binding ELISA, black 384 well Maxisorp plates were used. This was performed overnight at 4° C. The coated plates were washed 3× with PBS-T, followed by blocking with Chemiblocker (Merck-Millipore; 2170) for 1 h at RT. After blocking, dilution series of the respective antibodies were added to the plate usually covering concentrations ranging from the single digit ng/ml to the single-digit ug/ml range. Antibodies were also incubated for 1 h at RT, followed by washing and by addition of suitable detection antibodies coupled to HRP. Measurement was carried out as described above for the Screening ELISA.

For test [7], the target named is T2, PD-L1-his. The test is described as follows: grating-coupled interferometry, KD compared with that of CAN1005010H2. Here is the method:
as §1
as §2, with “Data were corrected (X and Y offset, DMSO calibration, double referencing) and fitted with a simple 1:1 interaction model (global fit) to obtain kinetic parameters.” left out

Test [8] deals with T4, canine PD-L1 on cells (canine).
T4 construct: also called wildtype canine PD-L1 on transfected HEK293c18 cells
T4 chain: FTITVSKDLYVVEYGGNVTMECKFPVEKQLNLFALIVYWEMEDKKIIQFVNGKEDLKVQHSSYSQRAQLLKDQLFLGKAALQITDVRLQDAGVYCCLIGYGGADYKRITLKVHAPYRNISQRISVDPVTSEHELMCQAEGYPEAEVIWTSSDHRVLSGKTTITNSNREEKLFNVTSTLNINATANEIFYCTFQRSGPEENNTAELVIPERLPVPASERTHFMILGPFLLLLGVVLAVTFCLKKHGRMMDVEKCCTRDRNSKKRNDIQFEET
As to the kind of experiment: flow cytometry on HEK293c18 cells transfected with canine PD-L1. Here is the method:
HEK293c18 cells were seeded in 6 well plates at a density of 1×10⁶ cells/well in DMEM+10% FCS. The next day, the transfection mix was prepared. […] Per well, 2 μg of the plasmid encoding for wildtype canine PD-L1 was diluted in 200 μl jetPRIME buffer. The solution was mixed and 4 μl of the transfection reagent was added, followed by mixing and centrifuging of the mixture. Then, the medium of the adherent cells is replaced by fresh medium and the transfection mix is carefully added onto the cells. The plate containing the transfected cells is placed back in the incubator and incubated for 24 h.
The cells were washed once by addition of 200 μl per well PBS/EDTA and centrifugation at 1500 rpm for 5 min. The supernatant was carefully decanted by holding the plate upside down above a waste and dried on a paper towel. Then, the cells were stained for dead cells with the dye Zombie violet (Biolegend; Cat.: 423114) diluted 1:500 in PBS/EDTA for 15 minutes at 4° C. in the dark. Subsequently, cells were washed with FACS Buffer (PBS/EDTA+2% FCS) as described above. Titration series of CAN1005016 and CAN1005019 usually ranging from 10 ng/ml to 10 μg/ml were prepared diluted in FACS buffer and added to the respective wells for a 30-minute incubation at 4° C. in the dark. […] Finally, the cells were washed again 3× and then resuspended in 200 μl FACS buffer and measured directly.

B1: CAN1005016 Fab (Fab, V domains shown)
VH: EVQLVESGGDLVKPGGTLRLSCVASGFTFSSYDMSWVRQSPGKGLQWVAVIWNTGSHAYYADAVKGRFTISRDNAKNTLYLQMNSLRAEDTAVYYCARGRQPRLVGTLDLWGQGTLVTVSS
VL: SYVLTQLPSVSVTLRQTARITCGGDSIGSKNVYWYQQKLGQAPVLIIYDDSSRPSGIPERFSGANSGNTATLTISGALAEDEADYYCQTYDSLVDVGVFGGGTQLTVL
In turn, B1 returned an EC50 in test [1] of 0.087 nM.

B2: CAN1005010H2 (as captured in the GCI measurement of anti-PD-L1 IgGs) (antibody, V domains shown)
VH: B1 VH
VL: B1 VL with Q88S, V94L
notes: also called parental clone CAN1005010H2
For the molecule B2, the Kd in test [2] was found to be 2.8 nM.

B3: CAN1005001L1 Fab (Fab, V domains shown)
VH: EVQLVESGGDLVKPAGSLRLSCVASGFTFSSYSMSWVRQAPEKGLQLVAGISSGGSSTYYTDAVKGRFTISRDNAKNTVYLQMNSLRAEDTAMYYCARGQGGRSSFDYWGQGTLVTVSS
VL: B1 VL with T89S, S92I, L93P, V94L, D95T, V96G, G97T
notes: Fab from bacterial lysate
Molecule B3 returned an EC50 in test [3] of 0.362 nM.

B4: CAN1005001 IgG (antibody, V domains shown)
VH: B3 VH
VL: B1 VL with T89S, D91A, S92M, L93P, V94L, D95T, V96G, G97T
notes: also called initial clone CAN1005001; parental clone CAN1005001
In test [4], B4 registered an IC50 of 4.6 nM. The molecule further showed an EC50 in test [5] of 0.4 nM.

B5: CAN1005016 IgG (antibody, V domains shown)
VH: B1 VH
VL: SYVLTQLPSVSVTLRQTARITCGGDSIGSKNVYWYQQKLGQAPVLIIYDDSSRPSGIPERFSGANSGNTATLTISGALAEDEADYYCQTYDSLVDVGVFGGGTQLTVLG
notes: also called biotinylated CAN1005016
As for B5, the IC50 in test [4] came to 0.95 nM. The molecule further showed a Kd in test [2] of 0.77 nM. Moreover, the EC50 in test [6] turned out to be 0.076 nM; in test [8], 10.5 nM. Moreover, the “fold improvement in affinity against CAN1005010H2” value in test [7] is more than 3 fold.

B6: CAN1005001H3 Fab (Fab, V domains shown)
VH: B3 VH with G50W, S52D, S53A, G54Y, G55A, S56G, S57V, Y59S, T61A, D62N
VL: B1 VL with T89S, D91A, S92M, L93P, V94L, D95T, V96G, G97T
notes: Fab from bacterial lysate
As for B6, the EC50 in test [3] is 0.097 nM.

B7: CAN1005010H2 Fab (Fab, V domains shown)
VH: B1 VH
VL: B1 VL with Q88S, V94L
notes: Fab from bacterial lysate
Molecule B7 came in with an EC50 in test [3] of 0.121 nM.

B8: CAN1005001 Fab (Fab, V domains shown)
VH: B3 VH
VL: B1 VL with T89S, D91A, S92M, L93P, V94L, D95T, V96G, G97T
notes: also called parental clone CAN1005001
As to B8, the EC50 in test [3] is 0.82 nM. Against the preceding molecule, the EC50 is about 6.8-fold higher.

B9: CAN1005010L1 Fab (Fab, V domains shown)
VH: B1 VH with T54E, H57S, A58T
VL: B1 VL
notes: Fab from bacterial lysate
For B9, the concentration giving a half-maximal response (EC50) in test [3] amounted to 0.139 nM.

B10: CAN1005019 Fab (Fab, V domains shown)
VH: B3 VH with G50W, S52D, S53A, G54Y, G55A, S56G, S57V, Y59S, T61A, D62N
VL: B1 VL with T89S, S92I, L93P, V94L, D95T, V96G, G97T
The molecule B10 displayed an EC50 in test [1] of 0.138 nM.

B11: CAN1005019 IgG (antibody, V domains shown)
VH: B3 VH with G50W, S52D, S53A, G54Y, G55A, S56G, S57V, Y59S, T61A, D62N
VL: B5 VL with T89S, S92I, L93P, V94L, D95T, V96G, G97T
notes: also called biotinylated CAN1005019
For B11, the IC50 in test [4] worked out at 1.32 nM. Further, the dissociation constant Kd in test [2] is 1.7 nM. The EC50 in test [6] worked out at 0.049 nM; in test [8], 11.8 nM.

The values are drawn from patent publication US20250011431A1 (ADIVO, published 2025).
